Test results taken from publication PMC5084272.
Values joined by “and” are separate entries in the source; they are usually repeats but may differ in a detail not shown here. Equal entries are not always repeated.

Molecular target: EGFP-labeled Kif15 (EGFP-Kif15) (human)
Assay: single-molecule fluorescence intensity and photobleaching steps

**Q.** “EGFP-labeled Kif15 (EGFP-Kif15) (natural protein)” was tested. Which stoichiometry N did it give?
**A.** 2 and > 2
